Assay results as given in the DeepSol protein solubility set.

Experiment: soluble on expression in E. coli; label from the status in PepcDB or PDB records

Soluble on expression in E. coli, not soluble:
MGSDKIHHHHHHMSETEDSIVGIKDKELKMIRKILNRYEMKLVDIKKIRSIYKIKTENSTVCLKKVSHEFKKVENGNYLVRELKKNNFNNIADYISTKDGKLIVFYKNLAFYLTEWVDGEECNLNDINEAINASKLLAKFHLATQNINFHKIKLKNNNSKNWVEIFAKCLRDMESFKSIIQNKRIKNKFDFMYEDLIESYYNRGLFSIKILNESSYFKIIKGSNNKKTVCHNSFYYQNIIKGKKDYYIIHLNSIIIDLPITDLCKMIRTLMTKKEYMWNFEKAKQIIQAYNSVNKLSKDEMEVMLALIAFPHKFWKLGKKRYVRHKNWSENKYINKLNKIVLNNKCEQSFIEEYISYLDDIKEFTNFN, MGSDKIHHHHHHMSETNAQKVQEVIIAGMSKTVANYDYAMSELEALVAANNMHAALRIDQGLEKPNPATFFGKGKVVEIKEVAAANDLHIMVINADLTPSQVRNLEEQTDIQIIDRTGLILEIFGNRARSKEAKLQVKIAQLQYQLPRLRTSISNRLDQQAGAAAGGGGGFTNRGAGETQLELNRRTIQDRISHAKHELKELNKDEVVRRSQRDKAGLPNVALVGYTNAGKSTTMNGLVKLFGKGEDKQVFEKDMLFATLDTSIRQLTFPDNKQLLLSDTVGFVSDLPHNLINAFRSTLAEAANADLLIQVIDYADPHYKEMMATTEKTLKEIGVHDVPMIYAFNKADLTEADYPNQQDDQLIYTARDEASLQALTSMIKAKVFKNYVTTTLLIPFNDGEVVAYLNDHANILKTDYLADGTQLTVELNTVDAQRYEKYVVTPA, MGSDKIHHHHHHMSETVTESYIGSAIVYIDGRDCGNVSGVKLAIDQETKSLPNYRGGGGNADEVTLIKAVKLSGTFYDFNNDNLALAMRGKIDVLTAAAVVDEDITAVLDGLAPTVHMIDTSVAPVVKNTAGDSTYVLDEDYVVSAAGIRALSGGAITAGQALKLSYTSQAGNALQALTESGKTVSVVVDGINDSTGKPWTLKFYKWKPTPTSGLDLIGTDYGSFDIEGAVLADSSIVATGKSKFFVRSAA, MGSDKIHHHHHHMSGMIGKIQDKKIFSITIIPSSWCNFRCVYCYENDHYKIKNMITTSEMTKRIKLFLENNIKTGFFRKVHIRWYGGEPLLDFKTIIDIMDFTNSIGKTYKTDIIGEIITNGYLLDIVKFKILLEKGVKIFQVTIDGYKDAHDKLRPLLNGKPTFDKIFENLIQTRNVTDNFFMFIRSNVMPDNLDSIKKFLDLASNYFSRDRRYYFTFFPVTRSGGDNDKNLKVIEPKKRMEIIQELYMYATQLGLNIPDKDTLLQIDGVPAMDDLCQALYPFSIIIRNDGKLFKCPLTVMIDDESVGHIEEDGSIVLDESKINRWAKYILSPLSRGCPRLHELGEVVGVEAE, MGSDKIHHHHHHMSIAAEKISSEALFDLLEIFDNQPWMRDLHAELAELWNACETREEQHLLKFLLKKFFLLDAQKEKLALYGISKKIQEWGLNPASTWIVAAANKDEIDGSSAGLQKLKNKINPIEEWHSRFISNIPSASNKVKSGDTIILFDDFIGTGGKMIKKTAWLKRLVTKFDPRNLKFYYVSFSGMQFGLTSLAAETACTTYAHFIFTKAISEALPEQEALTLISAMKSIEERLAVRHKNKQLNDYSLGYEKSEALYCGQNDNCPNNVFPVFWWPSMKNGNNRKTLLKRAG, MGSDKIHHHHHHMSIAIIIATHGVAAEQLLKTTEMLIGEQENVATIDFVSGENAETIMTKYQEKLSTTLAHCDEVLFLVDTWGGSPFNAANRVIGDNTNMDIVTGVNVPMLVETFMARDDNPSLQELVSIALETGRAGVRALKYEEKSAETTALSQPVPEQPQIAVKQQEGNLIVGLARIDDRLIHGQVATRWTKESRVTRIVVVNDDVAKDQVRSTMLKSVAPPGVTAHVVNIEKMIRVYNNPEYANERMMLLFTNPTDVLRLLEAGVDMKSINVGGMAYKDGKKMITSAVAVDDKDIAAFKAIDAMGIELDVRKVSNDSRQYMMDLLKKNNLI, MGSDKIHHHHHHMSIDIDIIKARAKNEYRLSKVRGEAMISVRIPGGILPAHLLTVARDIAETWGNGQIHLTTRQKLAMPGIRYEDIDNVNAALEPFLREIEIELCDVQVEDTKAGYLAIGGRNIVACQGNRICQKANTDTTGLSRRLEKLVYPSPYHLKTVIVGCPNDCAKASMADLGIIGVAKMRFTADRCIGCGACVKACSHHAVGCLALKNGKAVKEESACIGCGECVLACPTLAWQRKPDQLWQVRLGGRTSKKTPRVGKLFLNWVTEDVIKQVIVNLYEFEKEMLGGKPIYLHMGHLIDKGGYLRFKERVLRGVQLNPEAMVAERIYWAEDESVARMHLKPAGH, MGSDKIHHHHHHMSIFFKPPIDIEILFDNEESRKHVDIATRSSNSSYKSMKESLPVYEDGESLGGIVTLRVRDSKKVDHLGIKVSVIGSIDMLKSHGSGNSSSKKVTSSTSSSSSNGSVDVRKNSVDQFLCQSYDLCPAGELQHSQSFPFLFRDLSKRYESYKGKNVDVAYYVKVTVMRKSTDISKIKRFWVYLYNSVTTAPNTLSANETKATTNDIAGGNYAADNASDNTQTKSTQGEAADVNQVLPISHSNNEPKPVRLDIGIENCLHIEFEYAKSQYSLKEVIVGRIYFLLTRLRIKHMELSLITRESSGLQTSNVMTDSTAIRYEIMDGSSVKGETIPIRLFLSGYDLTPNMSCNYFNVKNYLSLVIIDEDGRRYFKQSEITLYRTR, MGSDKIHHHHHHMSIIFDKNLGILEKTIEEIQNEKKHILRTKYGINIKDNSIYDIINFPSSSIDKQISEVLKELFSKIKENGSYFNALKEDLSTPKSSTYEAIRKALLNVEGVKHINILSGPGTINLYLILQDDCFQDQEKKQIKIETKQNIWQAIYYTAPSGTVFKGDIEIEFLNKHNQKKTYKFSLGKKKYAYLKVVYKTEAKDAIYKEIDTQIRDIYNKILTDKYIEMGTSLRYQDFLAPVSIIRGIKELKIGICIKNDETKKITQLSDSDFTFNKDENTKEDEIIIFNTNKRLLINRE, MGSDKIHHHHHHMSIPSTLLGLSGGQFNEIDWSNCAIVMIDFQNEYVDGAMPLGDAGNKATANARLLLYKARNKNIPIFHVAHHGQDNDKIFNPLSSKVDIIDSLQPLDDEKTIIKMHPNAFYDTELQALITSAGKQQIIFAGFMSHMCVSSSVRAAFDLGFESFVCHDACATRDLPSVAGQVITASTVHDSAMAALQDRFAALVATDKLTNS, MGSDKIHHHHHHMSIVEEQAQAGAASTSGSLLDDIMAQARISPVDEGYSVAKQGIAALVANILDSGNAAEPVNKALVDSMIVELDKKLSKQIDVILHAKELQELESSWRSLKLLIDRTDFRENIKLLVLHATKEELLEDFEFAPEISQSGFYKHVYSSGYGQFGGQPIGGVIGDYAMTQSSPDIKLMQYVSAVGAMAHAPFISSVAPTFFGVDRFTDLPSIKDLKSVFEGPAYTKWRSLRESEDGRYLGLTAPRFLARLPYDPVENPIKGFNYKEDISTDHEHYLWGNTAYLMGTALTDSFAKYRWCPNIIGPQSGGAITDLPVHVYQAMGQLQAKIPTEVLITDRREYEMAEEGFITLTMRKDSDNAAFFSANSVQKPKVFPNTKEGKEAETNYKLGTQLPYMFIINRLAHYIKVLQREQIGSWKERQDLERELNTWIKQYIADQENPPADVRSRRPLRAAQIKVLDVEGEPGWYQVTMSVRPHFKYMGANFELSLVGRLDKE, MGSDKIHHHHHHMSKIKRGVSLYSFQEELFLGRMNVEDCVSFAASIGATGIEILPEQNMPTFPNLSDAQVEEWKAMVARHGCHFTAYDMFLDTKLRKDRLMSDDEQVESIVRDLRLCNRLGIRNMRVLVFVRPDILGRCVPYAEELDVHMGVEVHAPWHLEHAWILRTIEEADRLGTKHLGILPDMGIFMKHYPPAFRARFERQGARPEVTQFIVDQHEAKIMAEYTIYEVAVKMGGNKAEVAMAETLRHAPYANPKRIADYAPYFHHIQAKFYEMDEDCTDPSIAYDEVIDALVGCGWEGTLSSEYEGNRWIQDVHEVDSREQVRRQHVMFERLIVQSEARHAGKEAALCSTST, MGSDKIHHHHHHMSKITFKDIYIDGNKITEDSRKAIYLLPPQPLKYASNTWIYKTMPTMNQWLKDIEVQKKMHLNQSSYHLSFSFPANEKIDEVLLEKIRELGFQIGVLELYVIEAKALKELSRKRDVDIQLVSSNNINDYLHVYDAFARPFGDSYANMVKQHIYSSYNLDDIERLVAYVNHQPVGIVDIIMTDKTIEIDGFGVLEEFQHQGIGSEIQAYVGRMANERPVILVADGKDTAKDMYLRQGYVYQGFKYHILKENI, MGSDKIHHHHHHMSKIVVLGAGPAGCSAGYHLAKSGHKVMLIDKDCFPRDKTCGDGISLGSVQALSTMGIYPDDIKRLASEYAQIDGFLLGVSNEISHLCPTELKGYCIPRFVFDNLLYQKAINAGCVARTQRISDIEGYHQELYSDFDYIIDARGVYAGEANAIAIRAYWSIKVADFPKIYLSKAQIYFDKAFGVNGYGWIFPVAVDSELVKLNVGVGVWLDEYQKNNTNIIRLFNEFVQRNQATKQLLSLVVSQQKPKAYPLATAKRANTVSYGKVFKIGDAANLTDPLTGEGIANAILSGLYVTQAINMSTSPELASENWQRLYQLYFEPDLDAGLQIKSFRKFSFINKLLIWLMNRNKPFAEQVTYTFAGLIPYKKLLP, MGSDKIHHHHHHMSKNDLADLLRVGPETTMGKFMRQYWLPAVLSHEVKADGDPVRLMLLGEKLIAFRDSSGRVGVLDHRCPHRCASLFVGRNEENGIRCVYHGWKFDVDGNCVDMPSVPARLDFKEKVHARAYKAVERNGLIWVYMGENQNNPPPLPAIEANMIPGSKIWCLQRQCNWLQALEGDIDTSHVGFLHVGALQPEDLPEGSPLRPTVLNRAPEYRVQNAEWGATYGAYRLAEDGRMSWRAAQFMFPFWTMTPNILFSTRAIARAWVPMDDTHVMLFDITGGVDEGNPFFTTKLKNGEPMYEKIRRKPNGTGWYDRWLPVDGLQNDWGIDREAQRNMIHYTGIDNPSMQDQAITESMGPITDHSFEHLAPTDQMIAFVRRRLTQALRNFRDDSAPAPCAFSPETYFGARSGAFWADPVVEFSTAYRVELEKAQRWPANPDGSAVEREPEVAR, MGSDKIHHHHHHMSKPAITLWSDAHFFSPYVLSAWVALQEKGLSFHIKTIDLDSGEHLQPTWQGYGQTRRVPLLQIDDFELSESSAIAEYLEDRFAPPTWERIYPLDLENRARARQIQAWLRSDLMPIREERPTDVVFAGAKKAPLTAEGKASAEKLFAMAEHLLVLGQPNLFGEWCIADTDLALMINRLVLHGDEVPERLVDYATFQWQRASVQRFIALSAKQSG, MGSDKIHHHHHHMSKYDVSISVIMGVYNQNDEKVLREAVDSILNQTFKDFEFIIYDDGSQPDAALILEKIKKIDPRIVLIGQEKNHGLAFSLNACIEQARGKYIARMDADDISDPNRLKVQYDFLEKNPQYSWCGCNARLLDENGIWGTREMPEAPAEKDYLKYSPYIHPTVMYRASLFEETDGYKVSEETLLCEDYEIFMRLRQMGKRGYNIQETLFTYREDSDSYRRRDFKRGINEAKVRFENFNKLHVLFPTGWVYVFRPIIACLVPREMIYILKRMKTRKKPWKKELESELIITGK
